Measured values as given in patent US5962253A, “Oxidative decarboxylation of peptides catalyzed by flavoprotein EpiD” (Boehringer Ingelheim International GmbH, priority 1996, dated 1999).
Non-standard residues stand in square brackets, D forms with d. No end group written: not given here. hCys = N[C@@H](CCS)C(=O)O

Columns and labels:
flavoprotein EpiD [1] = target: T1, flavoprotein EpiD (Staphylococcus epidermidis, UniProt P30197); experiment: EpiD enzyme assay, oxidative decarboxylation of single peptides (reversed phase chromatography, ES-MS); type: biochemical, Staphylococcus epidermis; design: key to Reaction with EpiD: +: reaction with EpiD; -: no reaction with EpiD occurred, this indicates that using the given assay conditions, no reaction product was detected; details: for Reaction with EpiD: single peptide determinations, 0.5-1 h at 37° C., pH 8.0, 3 mM dithiothreitol; for substrate of EpiD / reaction with EpiD (in words): single peptides
T1 construct: made in house; host or cells: E. coli K38 (pGP1-2, pT7-5epiD)
T1 sequence (P30197 whole entry): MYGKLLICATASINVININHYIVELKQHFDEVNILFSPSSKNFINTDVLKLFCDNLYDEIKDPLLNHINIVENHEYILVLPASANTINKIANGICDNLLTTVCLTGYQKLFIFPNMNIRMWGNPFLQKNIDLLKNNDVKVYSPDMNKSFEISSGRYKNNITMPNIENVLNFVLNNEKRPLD
Excerpt: For the determination of the minimal size of the substrate, synthetic peptides with increasingly larger deletions of the amino terminus were used (Table 1). Reaction products were identified by their increasing hydrophobicity, increased absorption at 260 nm in 0.1% trifluoroacetic acid/H2 O/acetonitrile (FIGS. 19A and 19B), and the mass decrease of 46 Da as compared with the unmodified peptides. […] For a further study of the substrate specificity of EpiD, the heptapeptide SFNSYCC (SEQ ID NO: 2) was used. The serine and cysteine residues of the peptide SFNSYCC (SEQ ID NO: 2) form the COOH-terminal bicyclus of mature epidermin, and the possibility could not be excluded that amino acid exchanges in this peptide have an influence on the reaction with EpiD.
The method of the invention, which provides for the oxidative decarboxylation of a peptide, can be carried out in vitro under the following conditions, although it will be clear to those of ordinary skill in the art that the parameters given herein for carrying out the enzymatic reaction may be varied. The enzymatic reaction can be carried out at a temperature of 37° C. in 20 mMTris/HCl buffer (pH 8.0) containing 3 mM dithiothreitol, 1-2 μg of EpiD (the concentration of which is determined according to the method of Bradford, Anal. Biochem. 72:248-254 (1976)), and 10-50 μg of peptide, in a total volume of 1 ml. The enzymatic reaction is carried out for between 0.5 and 1 h.
Purification of EpiD and Enzyme Assay--EpiD was purified as described previously using E. coli expression plasmid pT7-5apiD (Kupke, T. et al, J. Bacteriol. 174:5354-5361 (1992)). The concentration of the EpiD solution was determined according to Bradford (Bradford, M. M., Anal. Biochem. 72:248-254 (1976)); the concentrations of the precursor peptide solutions were estimated by the absorbance at 205 nm using an extinction coefficient of 31 for a protein solution of 1 mg/ml (Janson, J. C., & Ryden, L., Methods Enzymol. 193:441-455 (1990)); the synthetic peptic substrates were weighed out. The enzyme was assayed for 0.5-1 h at 37° C. in 20 mM Tris/HCl buffer (pH 8.0) containing 3 mM dithiothreitol, 1-2 μg of EpiD, and 10-25 μg of precursor peptide or 50 μg of synthetic peptide in a total volume of 1 ml. The reaction mixture was then separated by reversed phase chromatography using a μRPC C2/C18 SC 2.1/10 column (Pharmacia Biotech Inc.). Peptides were eluted with a linear gradient of 0-50% acetronitrile, 0.1% trifluoroacetic acid in 3.8 ml with a flow rate of 200 μl/min. The absorbance was measured simultaneously at 214, 260, and 280 nm. The peptides were collected by the peak fractionation method, dried with a vacuum concentrator, stored at -70° C., dissolved in 30% acetonitrile, and analyzed by ES-MS.

EpiD = EpiD (Staphylococcus epidermidis, UniProt P30197); details: cited from earlier work; for Reaction with EpiD: reducing conditions, reversed phase chromatography and ES-MS
EpiD, sequence (P30197 whole entry): as above

[2] = Determination of the isoelectric point by isoelectric focusing and immunoblot; type: physicochemical; details: most basic band used
Experimental: Therefore, the modified peptides should be more basic than the educts. In order to verify this hypothesis, the isoelectric points of the products and the educts were determined. […] All of the bands were more basic than the educts, and for determination of the isoelectric points, the most basic bands were used. In the case of EpiAR-1Q -46 Da, the most basic band was the most intense band.
The peptide mixture Serva No. 39211 was used as an isoelectric focusing standard. Isoelectric focusing was carried out according to the instruction manual of Serva. The focused peptides were blotted on nitrocellulose and detected with an anti-MBP-EpiA antiserum (Kupke, T., et al., FEMS Lett. 112:43-48 (1993)) using the ECL system (Amersham Corp.).

flavoprotein EpiD [3] = target: T1, flavoprotein EpiD; experiment: Incubation of peptide libraries with EpiD, ES-MS and neutral loss mass spectrometry; type: biochemical, Staphylococcus epidermis; details: ES-MS and neutral loss scans
Experimental: Heptapeptide sublibraries with one variable amino acid residue (wherein the variable amino acid residue can be any one of the 20 common amino acids Ala, Arg, Asn, Asp, Cys, Gln, Glu, Gly, His, Ile, Leu, Lys, Met, Phe, Pro, Ser, Thr, Trp, Tyr, or Val) at positions 1-7 of the peptide substrate S^1 FNSYCC^7 (SEQ ID NO: 2) were synthesized and incubated with EpiD. Peptides were identified by their masses using product ion scans and neutral loss scans and by comparison of the mass spectra obtained after various incubation times. The heptapeptides with a single amino acid substitution at positions 1-4 were substrates of EpiD (Table 2). At positions 5-7 of the peptide, not all amino acid residues were possible, so the last three amino acids determined the substrate specificity for EpiD (Table 2). […]
Peptide libraries were dissolved to a concentration of 1-2 mg/ml in 20 mM Tris/HCl buffer (pH 8.0) containing 3 mM dithiothreitol. […] Neutral loss scans were recorded after 3 h of incubation.
Electrospray and Tandem Mass Spectrometry--Electrospray mass spectra (Bruins, A. P., et al., Anal. Chem. 59:2642-2646 (1987); Covey, T. R., et al., Rapid Commun. Mass Spectrom. 2:249-256 (1988)) were recorded on a triple quadrupole mass spectrometer API III with a mass range of m/z 10-2400 equipped with a nebulizer-assisted electrospray ("ion spray") source (Sciex, Thornbill, Ontario, Canada). […]

Row | Molecule | Reaction with EpiD (flavoprotein EpiD [1]) | substrate of EpiD / reaction with EpiD (in words) (flavoprotein EpiD [1]) | also measured
1 | SFNSYCC--NH2 (SFNSYCC-NH2; cysteine pairing not given here) [the amide of SFNSYCC] | - | not substrates of EpiD | 
2 | SFNSYCHCy (SFNSYC[hCys]; cysteine pairing not given here) [peptide SFNSYC with COOH-terminal homocysteine residue] | - | not substrates of EpiD | 
3 | EpiAS + 19A (MEAVKEKNDLFNLDVKVNAKESNDSGAEPRIASKFICTPGCAKTGSFNSYCC) | + | substrate for oxidative decarboxylation | 
4 | SFNSYGC | - |  | 
5 | EpiAC + 22S (MEAVKEKNDLFNLDVKVNAKESNDSGAEPRIASKFICTPGCAKTGSFNSYCC) | - | No reaction occurred | 
6 | [Zn+2] [Zn^2+, reference compound] |  |  | effect on the EpiD reaction (EpiD): inhibited
7 | Synthetic proepidermin: chemically synthesized proepidermin (amino acids +1 to +22 of EpiA) (IASKFICTPGCAKTGSFNSYCC) | + |  | 
8 | EpiAR-1Q: mutated EpiA with a mutation in the cleavage sequence of the EpiA leader (MEAVKEKNDLFNLDVKVNAKESNDSGAEPRIASKFICTPGCAKTGSFNSYCC) | + |  | Reaction with EpiD (EpiD): reacts; isoelectric point [2]: 5.0 pH
9 | EpiAdesC^+22 (MEAVKEKNDLFNLDVKVNAKESNDSGAEPRIASKFICTPGCAKTGSFNSYC) | - | not all peptides with a COOH-terminal cysteine residue were a substrate of EpiD | 
10 | Proepidermin: COOH-terminal proepidermin fragment of EpiA (amino acids +1 to +22) (IASKFICTPGCAKTGSFNSYCC) | + |  | Reaction with EpiD (EpiD): reacts
11 | K-EpiA (MEAVKEKNDLFNLDVKVNAKESNDSGAEPRIASKFICTPGCAKTGSFNSYCC) | + |  | 
12 | SFNSMCC |  |  | substrate of EpiD / reaction product in library (in words) (flavoprotein EpiD [3]): weak
